In patent US7098031 one finds activity (% transgenic embryos) data, which are given here for one substance.

The test system of the data set is PI-SceI meganuclease. The data set is described as follows: cell_activity. As to conditions: mouse eggs, purified protein co-injected, DNA/protein 1:25; 3 of 10 embryos; indirect evidence of cleavage.

Turning to PI-SceI sites in PIFFLago, the activity (% transgenic embryos) worked out at 30.
